# Measured values taken from patent US20180346531.
# Tests used:
# [1] = system: S1-KRAB ATF (synthetic construct); assay: cell_activity; conditions: luciferase reporter with target site in HEK293T, p<0.05
# [2] = system: SR71-KRAB ATF (synthetic construct); assay: cell_activity; conditions: luciferase reporter with target site in HEK293T, p<0.05
# [3] = system: S1 zinc finger array (six-finger ATF) (synthetic construct); assay: EMSA; conditions: ZBA (10 mM Tris pH 8.5, 90 mM KCl, 1 mM MgCl2, 100 uM ZnCl2), 0.05% NP-40, 0.1 mg/mL BSA, glycerol, room temperature 1.5 h; apparent KD, average of at least …
sequence,measurement,setting,value
CATGCGTAGGGAGCCGCG (double strand) [S1 target site (18 bp; Snurf promoter)],activity (fold repression),[1],> 5
GCAGGACCTGCTGCACTG (double strand) [SR71 target site (18 bp)],activity (fold repression),[2],> 5
CCTCTTCGCTATTACGCCAGCCATGCGTAGGGAGCCGCGGAACGTTCGATCGTACTCGAGTCAGGGTG (double strand) [S1 EMSA target],Kd,[3],3 nM
